Assay results from US20230212549A1 (3B PHARMACEUTICALS, published 2023).
Numbered stars: 1 amine (or outer) side, 2 acyl side, 3 side chain; on linkers, the order of the positions; unused ones are H or OH. Bridge positions count the residues as written; N and C are the ends. Square brackets hold non-standard residues; d marks the D form. Primed or numbered codes have the meaning given here. * marks the point of attachment. tMeBn(DOTA-PP) = 1,3,5-trimethylbenzylidene, two thioethers to Cys, third CH2 bound to one N of piperazine whose other N bears DOTA, O=C(O)CN1CCN(CC(=O)O)CCN(CC(=O)N2CCN(Cc3cc(C[*:1])cc(C[*:2])c3)CC2)CCN(CC(=O)O)CC1; Ttds″ = 1,13-diamino-4,7,10-trioxatridecan-succinamic acid spacer, O=C(CCC(=O)[*:2])NCCCOCCOCCOCCCN[*:1]; TBMB(SCH2CH2NH-DOTA) = O=C(O)CN1CCN(CC(=O)O)CCN(CC(=O)NCCSCc2cc(C[*:1])cc(C[*:2])c2)CCN(CC(=O)O)CC1; DOTA = O=C(O)CN1CCN(CC(=O)O)CCN(CC(=O)*)CCN(CC(=O)O)CC1; 3Lut″ = 3,5-lutidylidene (from 3,5-lutidine); mXylylene = c1cc(C[*:1])cc(C[*:2])c1; Pentanesulfonyl = CCCCCS(=O)(=O)*; 2Lut = 2,6-lutidylidene; Hexanoyl = CCCCCC(=O)*; NH(CH2)5NH2 = NCCCCCN*

B1: Pentyl-SO2-[Cys(3MeBn)-Pro-Pro-Thr-Gln-Phe-Cys]-Asp-NH2 (peptide)
peptide: Pentanesulfonyl-CPPTQFCD-NH2
modifications: linker 1-7 via mXylylene
SMILES: CCCCCS(=O)(=O)N[C@H]1CSCc2cccc(c2)CSC[C@@H](C(=O)N[C@@H](CC(=O)O)C(N)=O)NC(=O)[C@H](Cc2ccccc2)NC(=O)[C@H](CCC(N)=O)NC(=O)[C@H]([C@@H](C)O)NC(=O)[C@@H]2CCCN2C(=O)[C@@H]2CCCN2C1=O
notes: also called 3BP-3514
B2: Hex-[Cys(3MeBn)-Pro-Pro-Thr-Gln-Phe-Cys]-Asp-Ttds-Lys(DOTA)-NH2 (peptide)
peptide: Hexanoyl-CPPTQFCD[Ttds″]K(DOTA)-NH2
modifications: linker 1-7 via mXylylene
SMILES: CCCCCC(=O)N[C@H]1CSCc2cccc(c2)CSC[C@@H](C(=O)N[C@@H](CC(=O)O)C(=O)NCCCOCCOCCOCCCNC(=O)CCC(=O)N[C@@H](CCCCNC(=O)CN2CCN(CC(=O)O)CCN(CC(=O)O)CCN(CC(=O)O)CC2)C(N)=O)NC(=O)[C@H](Cc2ccccc2)NC(=O)[C@H](CCC(N)=O)NC(=O)[C@H]([C@@H](C)O)NC(=O)[C@@H]2CCCN2C(=O)[C@@H]2CCCN2C1=O
notes: also called 3BP-3395
B3: Hex-[Cys(3MeBn)-Pro-Pro-Thr-Glu-Phe-Cys]-Asp-Ttds-Lys(DOTA)-NH2 (peptide)
peptide: Hexanoyl-CPPTEFCD[Ttds″]K(DOTA)-NH2
modifications: linker 1-7 via mXylylene
SMILES: CCCCCC(=O)N[C@H]1CSCc2cccc(c2)CSC[C@@H](C(=O)N[C@@H](CC(=O)O)C(=O)NCCCOCCOCCOCCCNC(=O)CCC(=O)N[C@@H](CCCCNC(=O)CN2CCN(CC(=O)O)CCN(CC(=O)O)CCN(CC(=O)O)CC2)C(N)=O)NC(=O)[C@H](Cc2ccccc2)NC(=O)[C@H](CCC(=O)O)NC(=O)[C@H]([C@@H](C)O)NC(=O)[C@@H]2CCCN2C(=O)[C@@H]2CCCN2C1=O
notes: also called 3BP-3396
B4: Hex-[Cys(tMeBn(DOTA-PP))-Pro-Pro-Thr-Gln-Phe-Cys]-Asp-NH2 (peptide)
peptide: Hexanoyl-CPPTQFCD-NH2
modifications: linker 1-7 via tMeBn(DOTA-PP)
SMILES: CCCCCC(=O)N[C@H]1CSCc2cc(cc(CN3CCN(C(=O)CN4CCN(CC(=O)O)CCN(CC(=O)O)CCN(CC(=O)O)CC4)CC3)c2)CSC[C@@H](C(=O)N[C@@H](CC(=O)O)C(N)=O)NC(=O)[C@H](Cc2ccccc2)NC(=O)[C@H](CCC(N)=O)NC(=O)[C@H]([C@@H](C)O)NC(=O)[C@@H]2CCCN2C(=O)[C@@H]2CCCN2C1=O
B5: Hex-[Cys(tMeBn(DOTA-AET))-Pro-Pro-Thr-Gln-Phe-Cys]-Asp-NH2 (peptide)
peptide: Hexanoyl-CPPTQFCD-NH2
modifications: linker 1-7 via TBMB(SCH2CH2NH-DOTA)
SMILES: CCCCCC(=O)N[C@H]1CSCc2cc(CSCCNC(=O)CN3CCN(CC(=O)O)CCN(CC(=O)O)CCN(CC(=O)O)CC3)cc(c2)CSC[C@@H](C(=O)N[C@@H](CC(=O)O)C(N)=O)NC(=O)[C@H](Cc2ccccc2)NC(=O)[C@H](CCC(N)=O)NC(=O)[C@H]([C@@H](C)O)NC(=O)[C@@H]2CCCN2C(=O)[C@@H]2CCCN2C1=O
notes: also called 3BP-3426
B6: Hex-[Cys(tMeBn(DOTA-AET))-Pro-Pro-Thr-Gln-Phe-Cys]-Gly-OH (peptide)
peptide: Hexanoyl-CPPTQFCG-OH
modifications: linker 1-7 via TBMB(SCH2CH2NH-DOTA)
SMILES: CCCCCC(=O)N[C@H]1CSCc2cc(CSCCNC(=O)CN3CCN(CC(=O)O)CCN(CC(=O)O)CCN(CC(=O)O)CC3)cc(c2)CSC[C@@H](C(=O)NCC(=O)O)NC(=O)[C@H](Cc2ccccc2)NC(=O)[C@H](CCC(N)=O)NC(=O)[C@H]([C@@H](C)O)NC(=O)[C@@H]2CCCN2C(=O)[C@@H]2CCCN2C1=O
notes: also called 3BP-3656
B7: Hex-[Cys(tMeBn(DOTA-AET))-Pro-Pro-Thr-Gln-Phe-Cys]-Ser-OH (peptide)
peptide: Hexanoyl-CPPTQFCS-OH
modifications: linker 1-7 via TBMB(SCH2CH2NH-DOTA)
SMILES: CCCCCC(=O)N[C@H]1CSCc2cc(CSCCNC(=O)CN3CCN(CC(=O)O)CCN(CC(=O)O)CCN(CC(=O)O)CC3)cc(c2)CSC[C@@H](C(=O)N[C@@H](CO)C(=O)O)NC(=O)[C@H](Cc2ccccc2)NC(=O)[C@H](CCC(N)=O)NC(=O)[C@H]([C@@H](C)O)NC(=O)[C@@H]2CCCN2C(=O)[C@@H]2CCCN2C1=O
notes: also called 3BP-3658
B8: H-met-[Cys(3MeBn)-Pro-Pro-Thr-Glu-Phe-Cys]-Asp-His-Phe-Arg-Asp-NH2 (peptide)
peptide: H-[dM]CPPTEFCDHFRD-NH2
modifications: linker 2-8 via mXylylene
SMILES: CSCC[C@@H](N)C(=O)N[C@H]1CSCc2cccc(c2)CSC[C@@H](C(=O)N[C@@H](CC(=O)O)C(=O)N[C@@H](Cc2c[nH]cn2)C(=O)N[C@@H](Cc2ccccc2)C(=O)N[C@@H](CCCNC(=N)N)C(=O)N[C@@H](CC(=O)O)C(N)=O)NC(=O)[C@H](Cc2ccccc2)NC(=O)[C@H](CCC(=O)O)NC(=O)[C@H]([C@@H](C)O)NC(=O)[C@@H]2CCCN2C(=O)[C@@H]2CCCN2C1=O
notes: also called 3BP-2976
B9: Hex-[Cys(3MeBn)-Pro-Pro-Thr-Gln-Phe-Cys]-Asp-NH2 (peptide)
peptide: Hexanoyl-CPPTQFCD-NH2
modifications: linker 1-7 via mXylylene
SMILES: CCCCCC(=O)N[C@H]1CSCc2cccc(c2)CSC[C@@H](C(=O)N[C@@H](CC(=O)O)C(N)=O)NC(=O)[C@H](Cc2ccccc2)NC(=O)[C@H](CCC(N)=O)NC(=O)[C@H]([C@@H](C)O)NC(=O)[C@@H]2CCCN2C(=O)[C@@H]2CCCN2C1=O

biological target: T1, fibroblast activation protein (FAP) on FAP-expressing human WI-38 fibroblasts (human, UniProt Q12884 1-760); assay: competitive FACS, WI-38 cells, vs Cy5 tracer m3; A = pIC50 >8.0
T1 construct: also called human FAP

Binder | pIC50 Category (FACS) [pIC50]
Hexanoyl-CPPTQFCD-NH2 (linker 1-7 via 3Lut″, also called 3BP-3519) [Hex-[Cys(3Lut)-Pro-Pro-Thr-Gln-Phe-Cys]-Asp-NH2] | > 8
Hexanoyl-CPPTQFCD-NH2 (linker 1-7 via tMeBn(GaDOTA-PP); also: gallium complex of DOTA, also called 3BP-3592) [Hex-[Cys(tMeBn(GaDOTA-PP))-Pro-Pro-Thr-Gln-Phe-Cys]-Asp-NH2] | > 8
B1 | > 8
Hexanoyl-CPPTQFCD-NH2 (linker 1-7 via tMeBn(InDOTA-PP); also: indium complex of DOTA, also called 3BP-3590) [Hex-[Cys(tMeBn(InDOTA-PP))-Pro-Pro-Thr-Gln-Phe-Cys]-Asp-NH2] | > 8
B2 | > 8
B3 | > 8
B4 | > 8
B5 | > 8
Hexanoyl-CPPTQFCD-NH2 (linker 1-7 via 2Lut, also called 3BP-3518) [Hex-[Cys(2Lut)-Pro-Pro-Thr-Gln-Phe-Cys]-Asp-NH2] | > 8
Hexanoyl-CPPTQFCD[Ttds″]-{NH(CH2)5NH2-DOTA′} (linker 1-7 via mXylylene, also called 3BP-3404) [Hex-[Cys(3MeBn)-Pro-Pro-Thr-Gln-Phe-Cys]-Asp-Ttds-Ape-NH-DOTA′] | > 8
Hexanoyl-CPPTQFCD-NH2 (linker 1-7 via tMeBn(LuDOTA-PP); also: lutetium complex of DOTA, also called 3BP-3591) [Hex-[Cys(tMeBn(LuDOTA-PP))-Pro-Pro-Thr-Gln-Phe-Cys]-Asp-NH2] | > 8
Hexanoyl-CPPTQFCD-{NH(CH2)5NH2-DOTA′} (linker 1-7 via mXylylene, also called 3BP-3403) [Hex-[Cys(3MeBn)-Pro-Pro-Thr-Gln-Phe-Cys]-Asp-Ape-NH-DOTA′] | > 8
B6 | > 8
B7 | > 8
B8 | > 8
B9 | > 8

biological target: Recombinant human FAP (R&D systems, #3715-SE) (human, UniProt Q12884 26-760); assay: cell-based or functional assay

Binder | pIC50 Category (Activity) [pIC50]
Hexanoyl-CPPTQFCD-NH2 (linker 1-7 via 3Lut″, also called 3BP-3519) [Hex-[Cys(3Lut)-Pro-Pro-Thr-Gln-Phe-Cys]-Asp-NH2] | > 8
Hexanoyl-CPPTQFCD-NH2 (linker 1-7 via tMeBn(GaDOTA-PP); also: gallium complex of DOTA, also called 3BP-3592) [Hex-[Cys(tMeBn(GaDOTA-PP))-Pro-Pro-Thr-Gln-Phe-Cys]-Asp-NH2] | > 8
B1 | > 8
Hexanoyl-CPPTQFCD-NH2 (linker 1-7 via tMeBn(InDOTA-PP); also: indium complex of DOTA, also called 3BP-3590) [Hex-[Cys(tMeBn(InDOTA-PP))-Pro-Pro-Thr-Gln-Phe-Cys]-Asp-NH2] | > 8
B2 | > 8
B3 | > 8
B4 | > 8
B5 | > 8
Hexanoyl-CPPTQFCD-NH2 (linker 1-7 via 2Lut, also called 3BP-3518) [Hex-[Cys(2Lut)-Pro-Pro-Thr-Gln-Phe-Cys]-Asp-NH2] | > 8
Hexanoyl-CPPTQFCD[Ttds″]-{NH(CH2)5NH2-DOTA′} (linker 1-7 via mXylylene, also called 3BP-3404) [Hex-[Cys(3MeBn)-Pro-Pro-Thr-Gln-Phe-Cys]-Asp-Ttds-Ape-NH-DOTA′] | > 8
Hexanoyl-CPPTQFCD-NH2 (linker 1-7 via tMeBn(LuDOTA-PP); also: lutetium complex of DOTA, also called 3BP-3591) [Hex-[Cys(tMeBn(LuDOTA-PP))-Pro-Pro-Thr-Gln-Phe-Cys]-Asp-NH2] | > 8
Hexanoyl-CPPTQFCD-{NH(CH2)5NH2-DOTA′} (linker 1-7 via mXylylene, also called 3BP-3403) [Hex-[Cys(3MeBn)-Pro-Pro-Thr-Gln-Phe-Cys]-Asp-Ape-NH-DOTA′] | > 8
B6 | > 8
B7 | > 8
B8 | > 8
B9 | > 8
